What was measured:
crystal structure = target: the molecule itself; assay: crystal structure
SEC = target: the molecule itself; assay: SEC

| Protein | stoichiometry N (crystal structure) | stoichiometry N (SEC) |
| --- | --- | --- |
| C-linker/CNBHD of zebrafish ELK channel (amino acids Q543-L750) (domain or fragment, Danio rerio (zebrafish), UniProt A8WHX9 543-750, looked up) QRMYSRRSLYHTRTKDLKDFIRVHRLPKALAQRMLECFQTTWSVNNGIDVSELLKDFPDELRADIAMHLNKELLQLPLFESASRGCLRSLSLIIKTSFCAPGEFLIRQGDALQAIYFVCSGSMEVLKDNTVLAILGKGDLIGSDSLTKEQVIKTNANVKALTYCDLQYISLKGLREVLRLYPEYAQKFVSEIQHDLTYNLREGSGADL | 2 |  |
| GFP-tagged C-linker/CNBHD of zELK channels (amino acids Q543-L750) (domain or fragment, Danio rerio (zebrafish), UniProt A8WHX9 543-750, looked up) QRMYSRRSLYHTRTKDLKDFIRVHRLPKALAQRMLECFQTTWSVNNGIDVSELLKDFPDELRADIAMHLNKELLQLPLFESASRGCLRSLSLIIKTSFCAPGEFLIRQGDALQAIYFVCSGSMEVLKDNTVLAILGKGDLIGSDSLTKEQVIKTNANVKALTYCDLQYISLKGLREVLRLYPEYAQKFVSEIQHDLTYNLREGSGADL |  | 2 |
